Data as given in patent US20230242902A1, “A HIGHLY ERROR-PRONE […] R[…] FOR TARGETED CONTINUOUS EVOLUTION IN VIVO” (The Regents of the University of California, priority 2017, published 2023).
Substitutions are numbered along the chain they refer to. Names and notes keep the numbering of the source.

B1: N611P, V897V: TP-DNAP1 variant (protein)
chain: MDYKDKALNDLRNVYADFDSLPLDFRQILIKDRATLLQKEDVEKKILERQEDAKKYAEYLKQSEIPERISLPNIKRHKGVSISFEETSEDMVLEPRPFIFDGLNIRCFRRETIFSLKNKILNMVKESSSFKNVSRQSVSFMYFKIFNKGKVIASTKSVNIYEDKIDERLEDLCNNFDDVLKKIIDVTYGYESLFVSETYSYVIFYAKSIYFPQPRCVNNWGNNIPNILTFDSFKLFTANKNNVSCIKQCSRFLWQKDFNTLEEMIEYKNGNICIVTPQLHINDVRDIKSFNDIRLYSESPIKTFSVIDNTITYLFYFKEHLGVIFNITKSRHDRRVTKFSPLSKFSDVKNITVCFDIESYFDPEKESNQVNIPFICCASIIYNKVIGNIVDFEGRDCVAQMIEYVVDICGELNISSVELIAHNGGGYDFHYILSSMYNPAAIKNILIRNNSFISFNFAHDGVKFSVKDSYSFLLCSLANASKAFLNEETFKKTDFPHHDLKTADDLYKVYKEWSSVNTEINHVVEKEKLLITSEHIVNFTKNDKSKTLIEWSKDYCRNDVLVLSKVWLEFKNAVEDIFNCELVDQTMTLAGLSYKLFQANMPFDVELRHPPKEDYFNMREALIGGRCISVNGIYKDVLCLDVKSLYPASMAFYDQPYGSFKRVSSRPKDELGIYYVRVTPNRNNKSNFFPIRSHNKITYNNFEESTYIAWYTNVDIDIGLSEGHNIEYIPFDSYGNIGYSWSKKGKIFEKYIKDVLYKLKIKYEKQNNKVKRNVIKIIMNSLWGKFAQKWVNFEYFIKSEDDIDFESEEAYKIWDTDFMLIKKIKESTYSSKPIQNGVFTLSWARYHMKSIWDAGAKEGAECIYSDTDSIFVHKEHFKKNAKFMLNGLKVPIIGSEVGQLELECEFDKLLCAGKKQYMGFYTYFQDGKPCIKEKKRFKGIPSNYIIPELYAHLLSGADKEAKIQFLKFRREWGSVKGYIENKTVKAT
B2: R677Q: TP-DNAP1 variant (protein)
chain: B1 chain with P611N, R677Q
B3: R662C: TP-DNAP1 variant (protein)
chain: B1 chain with P611N, R662C
B4: T679E: TP-DNAP1 variant (protein)
chain: B1 chain with P611N, T679E
B5: T679Q: TP-DNAP1 variant (protein)
chain: B1 chain with P611N, T679Q
B6: E613D: TP-DNAP1 variant (protein)
chain: B1 chain with P611N, E613D
B7: T679A: TP-DNAP1 variant (protein)
chain: B1 chain with P611N, T679A
B8: E620R: TP-DNAP1 variant (protein)
chain: B1 chain with P611N, E620R
B9: E670M, S693G: TP-DNAP1 variant (protein)
chain: B1 chain with P611N, E670M, S693G
B10: R677L: TP-DNAP1 variant (protein)
chain: B1 chain with P611N, R677L
B11: I673V, E703D: TP-DNAP1 variant (protein)
chain: B1 chain with P611N, I673V, E703D
B12: T679R: TP-DNAP1 variant (protein)
chain: B1 chain with P611N, T679R
B13: K612Q: TP-DNAP1 variant (protein)
chain: B1 chain with P611N, K612Q
B14: R677S: TP-DNAP1 variant (protein)
chain: B1 chain with P611N, R677S
B15: R662A: TP-DNAP1 variant (protein)
chain: B1 chain with P611N, R662A
B16: K612V: TP-DNAP1 variant (protein)
chain: B1 chain with P611N, K612V
B17: K612A: TP-DNAP1 variant (protein)
chain: B1 chain with P611N, K612A
B18: K612S: TP-DNAP1 variant (protein)
chain: B1 chain with P611N, K612S
B19: R677M: TP-DNAP1 variant (protein)
chain: B1 chain with P611N, R677M
B20: F616E: TP-DNAP1 variant (protein)
chain: B1 chain with P611N, F616E
B21: Y675L: TP-DNAP1 variant (protein)
chain: B1 chain with P611N, Y675L
B22: D669G, T698M: TP-DNAP1 variant (protein)
chain: B1 chain with P611N, D669G, T698M
B23: L295Q: TP-DNAP1 variant (protein)
chain: B1 chain with L295Q, P611N
B24: Y675H: TP-DNAP1 variant (protein)
chain: B1 chain with P611N, Y675H
B25: N291W: TP-DNAP1 variant (protein)
chain: B1 chain with N291W, P611N

tested on: p1; assay: p1 copy number by p1-encoded mKate2 fluorescence; format: cell-based, S. cerevisiae; conditions: OR-Y24, measured in triplicate
Protocol: A calibration curve was established to correlate p1 copy number, determined via quantitative PCR (qPCR), with fluorescence of p1-encoded mKate2 (Table 1). Five TP-DNAP1 variants representing a wide range of copy numbers were transformed into ORY24 and passaged until w.t. p1 was displaced. The five OR-Y24 strains were grown to saturation, diluted 1:10,000 to mimic p1 fluctuation tests, and grown in triplicate 100 μL cultures and duplicate 40 mL cultures. 100 μL saturated cultures were subject to fluorescence measurement of mKate2 (ex/em=561 nm/620 nm, bandwidth=15 nm) on a flow cytometer (Invitrogen Attune NxT). Whole-cell DNA extracts were prepared from 40 mL cultures and used as templates for qPCR measurement of p1-encoded leu2 (Q180*), as described previously (Ravikumar et al., 2014). p1-encoded LEU2 was PCR amplified with qPCR-Leu2F and qPCR Leu2R; and genomic LEU3 was PCR amplified with qPCR-Leu3F and qPCR-Leu3R using SyBR Green (Fisher Scientific) master mix.
To assay p1 copy number for large-scale p1 fluctuation tests, additional replicates of OR-Y24 strains were grown from the 1:10,000 dilution in triplicate and saturated cultures were subject to fluorescence measurement via flow cytometry. Fluorescence measurements were converted to copy number with the linear calibration curve.
To assay relative p1 copy number for small-scale p1 fluctuation tests, an additional 200 μL culture of OR-Y24 strains were grown from the 1:10,000 dilution. 200 μL saturated cultures were subject to an OD600 measurement and fluorescence measurement of mKate2 (ex/em=588 nm/633 nm), using a microplate reader (TECAN Infinite M200 PRO). A linear relationship was assumed between p1 copy number and OD600-normalized mKate2 fluorescence. Copy numbers were calculated from normalization to a w.t. TP-DNAP1 control.
For a few large-scale p1 fluctuation tests, p1 copy number was assayed by the method of small scale p1 fluctuation tests (i.e. microplate reader measurement). For these experiments, mutant TP-DNAP1 p1 copy numbers were calculated by normalization to a w.t. TP-DNAP1 control. The copy number of this control was assumed to be the average w.t. TP-DNAP1 copy number from all large-scale p1 fluctuation tests that used flow cytometry measurements.
TP-DNAP1 plasmids were isolated from these strains and subject to Sanger sequencing. 210 unique variants were identified and the corresponding plasmids were re-transformed into OR-Y24. Transformed strains were passaged in SC-UH until w.t. p1 was displaced, and subject to p1 copy number measurement in triplicate. Four high copy variants were directly subject to qPCR measurements for validation. To test the suppressor activity of the G410H mutation, which yields increased p1 copy number, this amino acid change was added to several low-activity TP-DNAP1 variants. p1 copy number was similarly assayed for these strains.

Molecule | Mean fold-increase over w.t. (p1 copy number) [fold]
B1 | 2.04
B2 | 1.84
B3 | 1.7
B4 | 1.7
B5 | 1.71
B6 | 1.82
B7 | 1.82
B8 | 2.29
B9 | 1.55
B10 | 1.68
B11 | 1.88
B12 | 1.73
B13 | 2.04
B14 | 1.87
B15 | 1.75
B16 | 1.85
B17 | 1.94
B18 | 1.75
B19 | 1.97
B20 | 2.2
B21 | 1.96
B22 | 1.65
B23 | 2.48
B24 | 2.14
B25 | 2.26
